Data from patent US9109007B2, “MHC-I restricted epitopes containing non-natural amino acid residues” (Purdue Pharma L.P., priority 2010, dated 2015).
Where no end group is shown, it is not given here. [ ]: non-standard residue; d: D form. Gly(cPent) = N[C@H](C(=O)O)C1CCCC1

Target: T1, HLA-A2 (Homo sapiens, UniProt P04439, D140Y/D185E/D98H/E176V/E277Q/G131W/G231S/I119V/I121R/I166T/I218V/L300P/N151K/N90K/P208A/P217A/Q86G/Q94H/R138H/R169H)
T1 construct: Soluble Class I/Plate-Based Assays; purchased Beckman Coulter
Test: iTopia plate-based assay: stability (half-life) of peptide/HLA-A2 complexes
Format: binding
Settings: for stability of complex with HLA-A2 compared with the corresponding native survivin peptide: Survivin peptide derivatives
Protocol: II. Soluble Class I/Plate-Based Assays The plate-based assay, named iTopia™, is a commercial assay (Beckman Coulter). The assay is performed in wells of microtiter plates. At the outset of the assay, MHCI complexes (properly folded MI-IC heavy chain, beta 2 microglobulin and a place-holder peptide), are tethered to streptavidin-coated microplate wells. (Proper formation/folding of the MHC complex may be determined by binding of an anti-HLA-ABC antibody). A buffer designed to unfold and dissociate the complex was added to each test well, allowed to incubate, and the place holder peptide and beta 2 microglobulin were washed away. Escalating concentrations of the test peptide, along with additional beta 2 microglobulin, were added to each well and incubated in a buffer designed to promote refolding of complexes. Plates were incubated overnight at 21° C. Properly folded MHCI complex molecules were detected with a fluorescently labeled antibody selected based on its ability to only bind properly folded MHCI complexes. Binding was reported relative to a standardized positive control peptide. Relative affinities were reported as ED50, and are defined herein as the concentration of peptide required to achieve half maximal binding of the positive control. […] Assessment of Peptide/HLA-A0201 Complex Stability. MHCI complexes were dissociated in each test well using stripping buffer, and the place-holder peptide and beta 2 microglobulin were washed away. 100 uM of the test peptide was added to appropriate wells along with additional beta 2 microglobulin and the anti-HLA ABC antibody, and the plates were incubated overnight at 21° C. Plates were washed, and fresh buffer was added to each well. Plates were shifted to 37° C., and the appropriate wells were read at 0, 0.5, 1, 1.5, 2, 4, 6 and 8 hours.

| Substance | stability of complex with HLA-A2 compared with the corresponding native survivin peptide | increase in the half life of the HLA-A2 peptide complex compared to the native survivin peptide (Survivin peptide derivative vs native survivin peptide) |
| --- | --- | --- |
| I-[cpg]-TFKNWPF (I[Gly(cPent)]TFKNWPF) | more stable complex |  |
| K-[cpg]-RRAIEQL (K[Gly(cPent)]RRAIEQL) | more stable complex | greater than 20 fold |
